For test [1], the target named is GAPDH in lysates of FLAG-NME1 HEK 293 cells (human) (UniProt P04406). The test is described as follows: SILAC LC-MS/MS of mAb column eluate E2, FLAG-NME1 293 lysate, untreated over acid/heat-treated.
Test [2] deals with RPS3A in lysates of FLAG-NME1 HEK 293 cells (human) (UniProt P61247). The description is as above.
Test [3] has as its target TCP1 in lysates of FLAG-NME1 HEK 293 cells (human) (UniProt P17987). The test is described as above.
Test [4] has as its target LDHA in lysates of FLAG-NME1 HEK 293 cells (human) (UniProt P00338). The description is as above.
Test [5] deals with NME1 in lysates of FLAG-NME1 HEK 293 cells (human) (UniProt P15531). The description is as above.
Chain of NME1 in lysates of FLAG-NME1 HEK 293 cells (human) (P15531 2-152 limits assumed): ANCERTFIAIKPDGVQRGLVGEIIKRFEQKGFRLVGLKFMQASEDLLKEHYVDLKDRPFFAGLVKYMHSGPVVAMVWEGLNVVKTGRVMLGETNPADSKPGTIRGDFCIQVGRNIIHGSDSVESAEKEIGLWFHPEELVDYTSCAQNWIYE
Test [6] deals with SCS (succinyl-CoA synthetase) in mammalian cell lysates (human) (UniProt P53597). Described as above.
Chain of SCS (succinyl-CoA synthetase) in mammalian cell lysates (human) (P53597 41-346): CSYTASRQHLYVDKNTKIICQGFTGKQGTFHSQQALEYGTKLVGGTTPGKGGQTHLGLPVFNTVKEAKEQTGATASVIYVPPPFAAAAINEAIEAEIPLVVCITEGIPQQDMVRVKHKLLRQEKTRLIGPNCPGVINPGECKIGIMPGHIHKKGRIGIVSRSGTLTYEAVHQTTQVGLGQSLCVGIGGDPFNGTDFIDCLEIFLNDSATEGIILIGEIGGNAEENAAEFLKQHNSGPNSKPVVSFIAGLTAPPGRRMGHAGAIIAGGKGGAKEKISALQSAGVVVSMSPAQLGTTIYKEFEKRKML
In test [7] the target is TUBB in lysates of FLAG-NME1 HEK 293 cells (human) (UniProt P07437). The description is as above.
Chain of TUBB in lysates of FLAG-NME1 HEK 293 cells (human) (P07437 whole entry): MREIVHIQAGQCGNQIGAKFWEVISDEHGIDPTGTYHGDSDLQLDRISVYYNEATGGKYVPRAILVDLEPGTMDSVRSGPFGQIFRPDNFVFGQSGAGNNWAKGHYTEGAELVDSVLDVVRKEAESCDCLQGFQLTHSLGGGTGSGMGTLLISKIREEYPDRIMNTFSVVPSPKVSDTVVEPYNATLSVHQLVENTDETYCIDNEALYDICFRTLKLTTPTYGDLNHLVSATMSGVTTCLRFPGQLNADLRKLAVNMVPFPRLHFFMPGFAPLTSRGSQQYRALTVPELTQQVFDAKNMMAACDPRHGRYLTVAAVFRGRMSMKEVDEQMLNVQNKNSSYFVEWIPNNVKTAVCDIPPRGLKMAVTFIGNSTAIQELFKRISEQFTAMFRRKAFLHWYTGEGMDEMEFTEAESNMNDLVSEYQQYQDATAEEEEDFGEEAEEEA
Test [8] deals with NME2 in lysates of FLAG-NME1 HEK 293 cells (human) (UniProt P22392). The test is described as above.
Chain of NME2 in lysates of FLAG-NME1 HEK 293 cells (human) (P22392 whole entry): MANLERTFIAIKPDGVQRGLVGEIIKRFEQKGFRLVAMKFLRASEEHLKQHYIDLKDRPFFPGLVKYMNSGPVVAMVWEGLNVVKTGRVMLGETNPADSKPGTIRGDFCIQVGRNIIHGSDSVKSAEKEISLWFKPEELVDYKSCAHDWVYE
Test [9] deals with ACLY (ATP-citrate lyase) in mammalian cell lysates (human) (UniProt P53396). The test is described as above.
Chain of ACLY (ATP-citrate lyase) in mammalian cell lysates (human) (P53396 whole entry): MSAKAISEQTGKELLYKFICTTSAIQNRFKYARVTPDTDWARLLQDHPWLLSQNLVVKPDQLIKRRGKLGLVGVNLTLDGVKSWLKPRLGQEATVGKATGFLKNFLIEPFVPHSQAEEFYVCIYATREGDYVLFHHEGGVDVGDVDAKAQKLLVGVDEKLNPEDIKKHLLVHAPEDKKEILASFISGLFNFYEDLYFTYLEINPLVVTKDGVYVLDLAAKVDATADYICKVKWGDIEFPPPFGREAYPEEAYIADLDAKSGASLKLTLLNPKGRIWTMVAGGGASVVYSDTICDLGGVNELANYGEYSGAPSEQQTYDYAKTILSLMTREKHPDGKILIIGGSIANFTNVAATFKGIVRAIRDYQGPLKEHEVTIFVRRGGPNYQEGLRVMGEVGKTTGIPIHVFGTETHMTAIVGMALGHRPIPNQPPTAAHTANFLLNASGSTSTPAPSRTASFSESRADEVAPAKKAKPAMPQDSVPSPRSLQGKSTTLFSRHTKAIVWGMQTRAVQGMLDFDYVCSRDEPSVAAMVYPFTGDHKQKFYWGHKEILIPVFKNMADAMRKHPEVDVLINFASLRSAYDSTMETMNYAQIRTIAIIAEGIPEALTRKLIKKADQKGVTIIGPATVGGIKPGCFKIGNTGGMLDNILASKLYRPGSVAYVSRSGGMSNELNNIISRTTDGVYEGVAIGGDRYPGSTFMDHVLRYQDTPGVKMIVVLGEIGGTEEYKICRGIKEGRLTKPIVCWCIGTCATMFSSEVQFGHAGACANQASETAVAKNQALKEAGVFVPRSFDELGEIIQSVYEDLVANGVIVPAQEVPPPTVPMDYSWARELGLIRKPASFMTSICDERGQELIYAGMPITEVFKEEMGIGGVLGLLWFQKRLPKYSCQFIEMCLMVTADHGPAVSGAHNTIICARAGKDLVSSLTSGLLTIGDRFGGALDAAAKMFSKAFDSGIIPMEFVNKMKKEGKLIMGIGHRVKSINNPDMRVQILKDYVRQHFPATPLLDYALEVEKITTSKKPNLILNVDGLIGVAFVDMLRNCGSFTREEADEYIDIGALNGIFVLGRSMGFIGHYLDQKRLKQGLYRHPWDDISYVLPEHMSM
The target of test [10] is Histone H4 in lysates of FLAG-NME1 HEK 293 cells (human) (UniProt P62805). The test is described as above.
Test [11] deals with PGAM, endogenous, in lysates of FLAG-NME1 HEK 293 cells (human) (UniProt P18669). The test is described as above.
Chain of PGAM, endogenous, in lysates of FLAG-NME1 HEK 293 cells (human) (P18669 2-254 limits assumed): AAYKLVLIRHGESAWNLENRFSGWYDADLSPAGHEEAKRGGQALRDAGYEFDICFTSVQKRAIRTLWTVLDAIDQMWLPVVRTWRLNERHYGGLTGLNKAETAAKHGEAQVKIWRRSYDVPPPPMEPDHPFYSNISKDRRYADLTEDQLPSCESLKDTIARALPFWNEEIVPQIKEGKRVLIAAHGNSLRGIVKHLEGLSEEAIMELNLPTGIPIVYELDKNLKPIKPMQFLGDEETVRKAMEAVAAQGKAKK
Test [12] addresses YWHAB in lysates of FLAG-NME1 HEK 293 cells (human) (UniProt P31946). Described as above.
Test [13] addresses GAPDH in lysates of FLAG-NME1 HEK 293 cells (human) (UniProt P04406). Put plainly: SILAC LC-MS/MS of mAb column eluate E1, FLAG-NME1 293 lysate, untreated over acid/heat-treated.
In test [14] the target is RPS3A in lysates of FLAG-NME1 HEK 293 cells (human) (UniProt P61247). The test is described as above.
For test [15], the target named is TCP1 in lysates of FLAG-NME1 HEK 293 cells (human) (UniProt P17987). The description is as above.
Chain of TCP1 in lysates of FLAG-NME1 HEK 293 cells (human) (P17987 whole entry): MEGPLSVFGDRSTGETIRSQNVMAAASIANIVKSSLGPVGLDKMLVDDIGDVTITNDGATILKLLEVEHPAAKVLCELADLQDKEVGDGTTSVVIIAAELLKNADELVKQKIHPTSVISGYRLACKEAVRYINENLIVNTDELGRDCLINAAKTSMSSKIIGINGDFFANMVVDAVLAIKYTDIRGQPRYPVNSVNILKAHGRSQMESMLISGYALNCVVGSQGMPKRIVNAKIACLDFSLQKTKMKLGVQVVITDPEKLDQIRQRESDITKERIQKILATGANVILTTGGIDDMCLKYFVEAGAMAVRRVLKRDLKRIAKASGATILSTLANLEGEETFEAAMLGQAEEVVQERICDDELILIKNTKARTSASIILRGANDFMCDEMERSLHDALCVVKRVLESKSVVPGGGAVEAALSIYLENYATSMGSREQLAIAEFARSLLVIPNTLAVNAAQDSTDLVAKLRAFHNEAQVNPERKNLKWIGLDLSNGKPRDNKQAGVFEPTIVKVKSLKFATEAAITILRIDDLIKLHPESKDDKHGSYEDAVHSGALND
Test [16] concerns the target LDHA in lysates of FLAG-NME1 HEK 293 cells (human) (UniProt P00338). The test is described as above.
Test [17] deals with NME1 in lysates of FLAG-NME1 HEK 293 cells (human) (UniProt P15531). The description is as above.
Test [18] has as its target TUBB in lysates of FLAG-NME1 HEK 293 cells (human) (UniProt P07437). The test is described as above.
The target in test [19] is NME2 in lysates of FLAG-NME1 HEK 293 cells (human) (UniProt P22392). The test is described as above.
Test [20] addresses ACLY (ATP-citrate lyase) in mammalian cell lysates (human) (UniProt P53396). Described as above.
The target in test [21] is Histone H4 in lysates of FLAG-NME1 HEK 293 cells (human) (UniProt P62805). The test is described as above.
Test [22] concerns the target GNB1 H266 peptide MTYS-X-DNII, X = 1-pTza (mammalian). Put plainly: synthetic peptide dot blot array.
The target in test [23] is Histone H4 H18 peptide GAKR-X-RKVL, X = 1-pTza (mammalian). The test is described as follows: synthetic peptide dot blot array.
In test [24] the target is NME1 H118 peptide RNII-X-GSDS, X = 1-pTza (mammalian). The test is described as follows: synthetic peptide dot blot array.
The target of test [25] is ACLY-like H760 peptide AGAG-X-AGAG, X = 1-pTza (mammalian). Put plainly: synthetic peptide dot blot array.
The target of test [26] is PGAM, endogenous, in lysates of FLAG-NME1 HEK 293 cells (human) (UniProt P18669). Put plainly: SILAC LC-MS/MS of mAb column eluate E1, FLAG-NME1 293 lysate, untreated over acid/heat-treated.
Test [27] concerns the target YWHAB in lysates of FLAG-NME1 HEK 293 cells (human) (UniProt P31946). The test is described as above.
Test [28] has as its target 506 proteins enriched by at least 2-fold in 3-pHis column elutions E1-E3. Put plainly: SILAC LC-MS/MS of mAb column eluates E1-E3, FLAG-NME1 293 lysate.
Test [29] addresses GNB1 in lysates of FLAG-NME1 HEK 293 cells (human, UniProt P62873 2-340, phosphohistidine, annotated site printed H226 in Table 1 (H266 elsewhere)). The test is described as follows: SILAC LC-MS/MS of mAb column eluate E2, FLAG-NME1 293 lysate, untreated over acid/heat-treated. As for the experimental part:
A dramatic decrease of pHis in the heavy lysates was confirmed by immunoblotting. Both lysates were neutralized, diluted (1:5 to 1 M urea, pH 8), mixed together and one half was passed over the 1-pHis mAb column while the other half was passed over the 3-pHis mAb column. LC-MS/MS analysis was performed on tryptic peptides derived from proteins that eluted off the columns at pH 11. A SILAC ratio (light/heavy) was calculated for each peptide to determine which proteins were enriched in the untreated, light vs. heavy lysates that had been treated to reduce pHis.
After crosslinking, pHis mAb resins (˜750 μl each) were packed in 10 ml chromatography columns (BioRad) and stored at 4° C. in or equilibrated with Wash/Binding Buffer (50 mM Tris, 30 mM sodium carbonate pH 8 (prepared by dilution of 100 mM sodium carbonate buffer pH 10 with H₂O and 1 M Tris pH 7)). Stable isotope labeling by amino acids in cell culture (SILAC) was performed on FLAG-NME1 293 cells which were metabolically labeled with Arg (¹³C₆/¹⁵N₄) and Lys (¹³C₆). These “heavy” labeled cells were used as an internal negative control for pHis mAb binding. Non-labeled, “light” FLAG-NME1 293 cells were cultured in parallel. For cell lysis, precautions were taken to preserve pHis and avoid salts and detergents that can interfere with downstream MS analysis. […]

Chain of YWHAB in lysates of FLAG-NME1 HEK 293 cells (human) (P31946 whole entry): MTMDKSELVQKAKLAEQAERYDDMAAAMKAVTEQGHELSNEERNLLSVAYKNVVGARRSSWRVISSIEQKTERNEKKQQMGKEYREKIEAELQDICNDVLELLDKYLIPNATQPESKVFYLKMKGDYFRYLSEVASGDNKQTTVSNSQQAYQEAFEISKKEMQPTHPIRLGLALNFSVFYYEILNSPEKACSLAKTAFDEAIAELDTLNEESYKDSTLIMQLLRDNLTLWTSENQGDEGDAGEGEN
Chain of GAPDH in lysates of FLAG-NME1 HEK 293 cells (human) (P04406 2-335 limits assumed): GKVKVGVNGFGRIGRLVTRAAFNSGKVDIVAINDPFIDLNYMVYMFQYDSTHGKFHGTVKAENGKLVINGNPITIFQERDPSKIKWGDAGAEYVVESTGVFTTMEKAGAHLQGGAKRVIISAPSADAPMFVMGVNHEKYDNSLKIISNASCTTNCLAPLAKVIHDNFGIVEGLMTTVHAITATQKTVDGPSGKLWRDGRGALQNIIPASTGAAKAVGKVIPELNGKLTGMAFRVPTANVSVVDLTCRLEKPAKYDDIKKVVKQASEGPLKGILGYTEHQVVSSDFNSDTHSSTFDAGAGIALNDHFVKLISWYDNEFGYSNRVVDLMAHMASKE
Chain of GNB1 in lysates of FLAG-NME1 HEK 293 cells (P62873 2-340 limits assumed): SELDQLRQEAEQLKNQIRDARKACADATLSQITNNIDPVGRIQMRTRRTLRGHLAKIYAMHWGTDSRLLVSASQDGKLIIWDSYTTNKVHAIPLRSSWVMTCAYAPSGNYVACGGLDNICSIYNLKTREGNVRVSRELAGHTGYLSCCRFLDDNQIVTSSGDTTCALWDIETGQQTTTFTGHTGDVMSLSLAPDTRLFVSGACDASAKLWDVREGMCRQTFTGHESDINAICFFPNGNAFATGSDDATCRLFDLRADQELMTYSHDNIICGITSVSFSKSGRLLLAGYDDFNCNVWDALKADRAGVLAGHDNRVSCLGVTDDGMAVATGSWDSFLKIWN

With anti-1-pHis mAb SC1-1 (antibody), the SILAC ratio (light/heavy) is 4.45 fold in test [1]; 9.1 fold in test [2]; 5.99 fold in [3]; 6.5 fold in [4]; 51.9 fold in test [5]; 1.68 fold in test [6]. The SILAC ratio (light/heavy) in test [7] is 4.49 fold; in test [8] it was 56 fold; in test [9], 7.2 fold; in test [10], 9.8 fold; in test [11], 4.25 fold; in [12], 2.04 fold. Also, the SILAC ratio (light/heavy) in [13] came to 3.4 fold; in test [14], 7.21 fold; in test [15], 6.1 fold; in test [16], 4.18 fold; in [17] it was 15.1 fold; in [18], 3.55 fold. In addition, the SILAC ratio (light/heavy) in test [19] was 15.6 fold; in [20] it was 5.29 fold; in [21], 19.1 fold. Besides, the least amount detected in [22], in [23], in test [24] and in test [25] was 20 ng throughout.
anti-1-pHis mAb SC50-3 (antibody): the least amount detected in test [22], in test [23], in test [24] and in test [25] was 20 ng in each case.

B1: anti-3-pHis mAb SC39-4 (antibody, V domains shown, not shown: a dimerising Fc or GST)
VH: ESGGRLVTPGGSLTLTCTVSGFSLSRYNMGWVRQAPGKGLEWIGWIPFRGSLKYATWATGRFTISRTSTTVDLRMTGLTAADTATYFCVRSSDGFDLWGPGTLVTVSS
VL: QFVMTQTPASVEAVVGGTVTIKCQASRDTGDGLIWYQQKPGQPPKRLIYKASTVASGVPSRFKGRGSGTDFTLTISDLECADAATYYCHSNFYNRWTYGNAFGGGTEVVVKG
notes: Rabbit hybridoma monoclonal IgG, used as whole IgG (free or crosslinked to protein-A agarose)
As to B1, the SILAC ratio (light/heavy) in [1] worked out at 3.32 fold; in [2], 4.98 fold; in [3], 3.2 fold; in test [4], 3.08 fold; in [5], 2.14 fold; in [7], 2.09 fold. The SILAC ratio (light/heavy) was found to be 2.99 fold in test [9]; 17.9 fold in test [10]; 2.44 fold in test [11]; 1.63 fold in [12]; 4.76 fold in test [13]; 10.4 fold in test [14]. Also, the SILAC ratio (light/heavy) worked out at 5.98 fold in test [15]; 6.6 fold in test [16]; 118 fold in test [17]; 4.33 fold in test [18]; 3.46 fold in test [19]; 11.6 fold in test [20]. Also, the SILAC ratio (light/heavy) worked out at 22.8 fold in test [21], 4.01 fold in test [26], 7.43 fold in test [27] and 1.21 fold in test [29]. For the same molecule, the fold enrichment (SILAC ratio light/heavy) in test [28] is greater than 2 fold.

The values are drawn from patent publication US20160033516A1 (SALK INSTITUTE FOR BIOLOGICAL STUDIES, published 2016).
